Test results reported in patent US20110152358A1, “Compositions and Methods for Diagnosis and Treatment of Pancreatic Ductal Cancer” (priority 2008, published 2011).

B1: sh1: lentiviral shRNA targeting 14-3-3σ, SEQ ID NO: 24 (sense) and 25 (antisense) (nucleic acid)
sense: TCGAGACAACCTGACACTGTTTCAAGAGAACAGTGTCAGGTTGTCTCGTTTTTTC
antisense: TCGAGAAAAAACGAGACAACCTGACACTGTTCTCTTGAAACAGTGTCAGGTTGTCTCGA
B2: sh2: lentiviral shRNA targeting 14-3-3σ, SEQ ID NO: 26 (sense) and 27 (antisense) (nucleic acid)
sense: TGGAGAGAGCCAGTCTGATCTTCAAGAGAGATCAGACTGGCTCTCTCCTTTTTTC
antisense: TCGAGAAAAAAGGAGAGAGCCAGTCTGATCTCTCTTGAAGATCAGACTGGCTCTCTCCA
B3: shCtrl: scrambled control shRNA not targeting any known mammalian gene, SEQ ID NO: 28 and 29 (nucleic acid)
chain 1: TACGAGCGAGGTGCCGATATTTCAAGAGAATATCGGCACCTCGCTCGTTTTTTTC
chain 2: TCGAGAAAAAAACGAGCGAGGTGCCGATATTCTCTTGAAATATCGGCACCTCGCTCGTA

Key:
Type in all cases: cell-based, human
T3M4 cells [1] = assay: in vitro wound-healing (migration) assay, shRNA infected T3M4 cells; conditions: serum free; 24 hours; percentage change in wound area
Experimental: To assess the motility properties, in vitro wound-healing assays or migration assays were performed. Cells were grown to confluence in 6-well tissue culture plates, serum starved overnight, and the monolayer was scratched with a 200 μL pipette tip generating two parallel wounds. The scratched wells were washed to remove cell debris and incubated for the next 24 hours in serum free media in the absence or presence 1 nmol/L EGF with or without the Src family kinase inhibitor PP2 (4-amino-5-(4-chlorophenyl)-7-(t-butyl)pyrazolo[3,4-d]pyrimidine) (Alexis, La Jolla, Calif.). To monitor cell migration, photographs were taken of each well at five marked locations under 40× magnification immediately after wounding (t0) and again 24 hours after wounding (t24), using an inverted microscope fitted with a digital camera (Nikon Diaphot 300, Nikon, Japan). The wound area of five matched pictures at t0 and t24 from each well were then measured using the ImageJ software (NIH, Bethedsa, Md.), and the percentage change in the wound area was calculated.

T3M4 cells [2] = assay: cisplatinum induced apoptosis, immunoblot of cleaved PARP and cleaved caspase-3, shRNA infected T3M4 cells; conditions: cisplatinum 10 νg/mL for 2, 6, or 24 hours
Experimental: Sham or 14-3-3σ transfected PANC-1 cells were incubated for 24 hours in complete medium in the absence or presence of 10 μg/mL of cisplatinum. Scrambled or 14-3-3σ specific shRNA infected T3M4 cells were incubated in complete medium for 24 hours that was supplemented with 10 μg/mL cisplatinum for the initial 2 or 6 hours, or the entire 24 hours. Both floating and adherent cells were then collected and lysed in the buffer containing protease inhibitors, subjected to 10% SDS-PAGE, and immunoblotted with specific antibodies against cleaved Poly (ADP-ribose) Polymerase (PARP) and cleaved caspase-3 (Cell Signaling Technology, Danvers, Mass.).

14-3-3σ = assay: downregulation of 14-3-3σ by lentiviral shRNA in T3M4 cells (western blotting, Q-PCR); conditions: for 14-3-3σ levels: MOI of 40

Molecule	basal motility of shRNA infected cells (T3M4 cells [1])	sensitivity of shRNA infected cells to cisplatinum versus control cells (T3M4 cells [2])	14-3-3σ levels (14-3-3σ)	sensitivity of sh2 infected cells to cisplatinum compared to sh1 (T3M4 cells [2])	knockdown of 14-3-3σ, sh2 relative to sh1 (14-3-3σ)
B1	20%	significantly more sensitive than control cells	reduce	–	–
B2	20%	significantly more sensitive than control cells	reduce	relatively more sensitive	more effective than sh1
B3	20%	–	did not alter	–	–
